Test [1] addresses T1, rat amylin receptor (rat calcitonin receptor + rat RAMP 3) (rat, UniProt P32214 25-516; Q9JJ73 23-147).
T1 construct: whole, on cells; Membranes prepared from transiently transfected BHK tk'ts 13 cells; also called rAmylin-R; rat amylin 3(a) receptor
T1 sequence (looked up) 1: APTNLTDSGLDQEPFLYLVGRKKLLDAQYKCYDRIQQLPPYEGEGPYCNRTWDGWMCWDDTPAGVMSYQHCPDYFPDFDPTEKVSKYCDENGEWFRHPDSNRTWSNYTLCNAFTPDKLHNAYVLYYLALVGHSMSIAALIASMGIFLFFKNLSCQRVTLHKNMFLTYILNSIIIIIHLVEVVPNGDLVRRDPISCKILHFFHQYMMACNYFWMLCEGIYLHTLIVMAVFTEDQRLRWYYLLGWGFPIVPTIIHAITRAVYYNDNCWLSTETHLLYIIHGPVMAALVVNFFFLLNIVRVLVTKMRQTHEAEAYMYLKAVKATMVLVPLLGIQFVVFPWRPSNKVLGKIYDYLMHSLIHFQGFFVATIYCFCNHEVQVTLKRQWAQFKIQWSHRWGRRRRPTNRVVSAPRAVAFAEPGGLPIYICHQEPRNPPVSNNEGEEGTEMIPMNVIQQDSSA
T1 sequence (looked up) 2: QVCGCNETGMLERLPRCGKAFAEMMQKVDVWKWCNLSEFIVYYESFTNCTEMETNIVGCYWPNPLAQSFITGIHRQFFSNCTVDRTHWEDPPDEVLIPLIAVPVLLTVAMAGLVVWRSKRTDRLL
The experiment in a line: SPA competition vs 125I-rat amylin, membranes (Assay VI).

Test [2] has as its target T2, rat calcitonin receptor (rat, UniProt P32214 25-516).
T2 construct: whole, on cells; Membranes prepared from transiently transfected BHK tk'ts 13 cells; also called rCTR; rat calcitonin (a) receptor
T2 sequence (looked up): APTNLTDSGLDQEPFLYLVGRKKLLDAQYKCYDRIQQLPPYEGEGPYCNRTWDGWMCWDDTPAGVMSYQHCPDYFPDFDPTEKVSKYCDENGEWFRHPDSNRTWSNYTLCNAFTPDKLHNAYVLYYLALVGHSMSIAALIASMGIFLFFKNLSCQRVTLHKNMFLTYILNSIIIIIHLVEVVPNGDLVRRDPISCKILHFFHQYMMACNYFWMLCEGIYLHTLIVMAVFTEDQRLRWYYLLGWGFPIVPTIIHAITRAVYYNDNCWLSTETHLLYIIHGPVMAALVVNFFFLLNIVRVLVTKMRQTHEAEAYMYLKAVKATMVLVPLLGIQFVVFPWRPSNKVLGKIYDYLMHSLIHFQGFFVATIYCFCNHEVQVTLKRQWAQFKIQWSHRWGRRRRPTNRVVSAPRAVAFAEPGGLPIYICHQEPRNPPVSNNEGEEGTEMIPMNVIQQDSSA
The experiment in a line: SPA competition vs 125I-calcitonin, membranes (Assay VIII).

In test [3] the target is T2, rat calcitonin receptor. Kind of test: ratio of IC50 on rat calcitonin receptor to IC50 on rat amylin receptor.
Test [4] concerns the target T3, human calcitonin receptor (human, UniProt P30988 25-474).
T3 construct: whole, on cells; Membranes from stably transfected BHK cells; also called hCTR; hCT
T3 sequence (looked up): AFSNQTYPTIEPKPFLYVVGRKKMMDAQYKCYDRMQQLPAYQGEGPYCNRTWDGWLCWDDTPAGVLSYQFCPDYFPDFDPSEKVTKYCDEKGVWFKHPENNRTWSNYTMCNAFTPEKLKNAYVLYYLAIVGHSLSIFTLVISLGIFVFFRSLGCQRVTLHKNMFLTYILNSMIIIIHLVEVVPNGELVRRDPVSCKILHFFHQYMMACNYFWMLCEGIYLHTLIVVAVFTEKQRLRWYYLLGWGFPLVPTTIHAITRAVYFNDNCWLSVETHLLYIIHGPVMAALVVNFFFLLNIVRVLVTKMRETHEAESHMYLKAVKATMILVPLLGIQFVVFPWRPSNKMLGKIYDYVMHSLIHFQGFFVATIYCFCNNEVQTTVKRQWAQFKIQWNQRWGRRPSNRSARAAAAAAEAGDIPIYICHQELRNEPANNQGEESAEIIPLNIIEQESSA
Kind of test: ratio of IC50 on human calcitonin receptor to IC50 on human amylin receptor. How it is done: The resulting pellet was resuspended, homogenized and centrifuged (20.000 rpm, 15 min) in a buffer containing 20 mM Na-HEPES and 0.1 mM EDTA (pH 7.4, buffer 2). The resulting pellet was resuspended in buffer 2 and protein concentration was measured (BCA protein Assay, Pierce). The homogenate was kept cold during the whole procedure. The membranes were kept at −80° C. until use. The assay was performed in a 384 well Optiplate (PerkinElmer) in a total volume of 40 ul. Membranes were mixed with SPA beads. Final concentration of membranes 35 ng/μL final and SPA beads was 0.05 mg/well. Test-compounds were dissolved in DMSO and further diluted in assay buffer (50 mM Hepes, pH 7.4, 1 mM CaCl2, 5 mM MgCl₂, 0.1% OA and 0.02% Tween20). […] The final mixture was incubated with shaking at 400 rpm for 120 min at 25° C. prior to centrifugation (1500 rpm, 10 min). Samples were analyzed on TopCounter™ (Packard). The IC₅₀ was calculated using (one site binding competition analysis) GraphPad Prism5 as a measure of receptor affinity.
Membranes were prepared in the following way; the cells were rinsed with PBS and incubated with Versene for approximately 5 min before harvesting. The cells were flushed with PBS and the cell-suspension was centrifuged for 5 min at 1000 rpm. Cells were homogenized (Ultrathurrax) in a buffer containing 20 mM Na-HEPES and 10 mM EDTA (pH 7.4) and centrifuged at 20.000 rpm for 15 min. The resulting pellet was resuspended, homogenized and centrifuged (20.000 rpm, 15 min) in a buffer containing 20 mM Na-HEPES and 0.1 mM EDTA (pH 7.4, buffer 2). The resulting pellet was resuspended in buffer 2 and protein concentration was measured (BCA protein Assay, Pierce). The homogenate was kept cold during the whole procedure. The membranes were kept at −80° C. until use. Assay was performed in a 384 well Optiplate (PerkinElmer) in a total volume of 40 ul. Membranes were mixed with SPA beads.

Numbered stars: 1 amine (or outer) side, 2 acyl side, 3 side chain; on linkers, the order of the positions; unused ones are H or OH. Bridge positions count the residues as written; N and C are the ends. Side chains are listed from the residue outwards. Ends that are not written are not given here. * marks the point of attachment. C20 diacid = O=C(O)CCCCCCCCCCCCCCCCCCC(=O)*; C18 diacid = O=C(O)CCCCCCCCCCCCCCCCC(=O)*; γGlu = O=C(O)[C@H](CCC(=O)[*:2])N[*:1]

B1: N^ε1-[(4S)-4-carboxy-4-(17-carboxyheptadecanoylamino)butanoyl]-[Arg17,Pro21,Pro27,His34]-h-amylin (peptide)
peptide: K([γGlu-C18 diacid])CNTATCATQRLANFLRHSSPNFGAIPSSTNVGHNTY-NH2
modifications: disulfide 2-7; N-terminus assumed
SMILES: CC[C@H](C)[C@H](NC(=O)[C@H](C)NC(=O)CNC(=O)[C@H](Cc1ccccc1)NC(=O)[C@H](CC(N)=O)NC(=O)[C@@H]1CCCN1C(=O)[C@H](CO)NC(=O)[C@H](CO)NC(=O)[C@H](Cc1c[nH]cn1)NC(=O)[C@H](CCCNC(=N)N)NC(=O)[C@H](CC(C)C)NC(=O)[C@H](Cc1ccccc1)NC(=O)[C@H](CC(N)=O)NC(=O)[C@H](C)NC(=O)[C@H](CC(C)C)NC(=O)[C@H](CCCNC(=N)N)NC(=O)[C@H](CCC(N)=O)NC(=O)[C@@H](NC(=O)[C@H](C)NC(=O)[C@@H]1CSSC[C@H](NC(=O)[C@@H](N)CCCCNC(=O)CC[C@H](NC(=O)CCCCCCCCCCCCCCCCC(=O)O)C(=O)O)C(=O)N[C@@H](CC(N)=O)C(=O)N[C@@H]([C@@H](C)O)C(=O)N[C@@H](C)C(=O)N[C@@H]([C@@H](C)O)C(=O)N1)[C@@H](C)O)C(=O)N1CCC[C@H]1C(=O)N[C@@H](CO)C(=O)N[C@@H](CO)C(=O)N[C@H](C(=O)N[C@@H](CC(N)=O)C(=O)N[C@H](C(=O)NCC(=O)N[C@@H](Cc1c[nH]cn1)C(=O)N[C@@H](CC(N)=O)C(=O)N[C@H](C(=O)N[C@@H](Cc1ccc(O)cc1)C(N)=O)[C@@H](C)O)C(C)C)[C@@H](C)O
In the case of B1, the figures for the IC50 (in test [1]; with rat calcitonin receptor [2]) were 1.17 nM and 47 nM, respectively. In addition, in the test with rat calcitonin receptor [3], the “Ratio rCT/rAmylin binding” value was 40.3. For the same molecule, in test [4], the “Ratio hCT/hAmylin binding” value is 59.4.

B2: N^ε1-[(4S)-4-carboxy-4-(19-carboxynonadecanoylamino)butanoyl]-[Ala14,Arg17,Pro21,Pro27,Pro34]-h-amylin (peptide)
peptide: K([γGlu-C20 diacid])CNTATCATQRLAAFLRHSSPNFGAIPSSTNVGPNTY-NH2
modifications: disulfide 2-7; N-terminus assumed
SMILES: CC[C@H](C)[C@H](NC(=O)[C@H](C)NC(=O)CNC(=O)[C@H](Cc1ccccc1)NC(=O)[C@H](CC(N)=O)NC(=O)[C@@H]1CCCN1C(=O)[C@H](CO)NC(=O)[C@H](CO)NC(=O)[C@H](Cc1c[nH]cn1)NC(=O)[C@H](CCCNC(=N)N)NC(=O)[C@H](CC(C)C)NC(=O)[C@H](Cc1ccccc1)NC(=O)[C@H](C)NC(=O)[C@H](C)NC(=O)[C@H](CC(C)C)NC(=O)[C@H](CCCNC(=N)N)NC(=O)[C@H](CCC(N)=O)NC(=O)[C@@H](NC(=O)[C@H](C)NC(=O)[C@@H]1CSSC[C@H](NC(=O)[C@@H](N)CCCCNC(=O)CC[C@H](NC(=O)CCCCCCCCCCCCCCCCCCC(=O)O)C(=O)O)C(=O)N[C@@H](CC(N)=O)C(=O)N[C@@H]([C@@H](C)O)C(=O)N[C@@H](C)C(=O)N[C@@H]([C@@H](C)O)C(=O)N1)[C@@H](C)O)C(=O)N1CCC[C@H]1C(=O)N[C@@H](CO)C(=O)N[C@@H](CO)C(=O)N[C@H](C(=O)N[C@@H](CC(N)=O)C(=O)N[C@H](C(=O)NCC(=O)N1CCC[C@H]1C(=O)N[C@@H](CC(N)=O)C(=O)N[C@H](C(=O)N[C@@H](Cc1ccc(O)cc1)C(N)=O)[C@@H](C)O)C(C)C)[C@@H](C)O
notes: also called compound 94
Take B2: the IC50 in test [1] was 0.397 nM; in the test with rat calcitonin receptor [2] it was 111 nM. In the test with rat calcitonin receptor [3], the “Ratio rCT/rAmylin binding” value amounted to 280. For the same molecule, in test [4], the “Ratio hCT/hAmylin binding” value stood at 46.3.

B3: N^ε1-[(4S)-4-carboxy-4-(19-carboxynonadecanoylamino)butanoyl]-[Asp14,Arg17,Pro21,Pro27,Pro34,Glu35]-h-amylin (peptide)
peptide: K([γGlu-C20 diacid])CNTATCATQRLADFLRHSSPNFGAIPSSTNVGPETY-NH2
modifications: disulfide 2-7; N-terminus assumed
SMILES: CC[C@H](C)[C@H](NC(=O)[C@H](C)NC(=O)CNC(=O)[C@H](Cc1ccccc1)NC(=O)[C@H](CC(N)=O)NC(=O)[C@@H]1CCCN1C(=O)[C@H](CO)NC(=O)[C@H](CO)NC(=O)[C@H](Cc1c[nH]cn1)NC(=O)[C@H](CCCNC(=N)N)NC(=O)[C@H](CC(C)C)NC(=O)[C@H](Cc1ccccc1)NC(=O)[C@H](CC(=O)O)NC(=O)[C@H](C)NC(=O)[C@H](CC(C)C)NC(=O)[C@H](CCCNC(=N)N)NC(=O)[C@H](CCC(N)=O)NC(=O)[C@@H](NC(=O)[C@H](C)NC(=O)[C@@H]1CSSC[C@H](NC(=O)[C@@H](N)CCCCNC(=O)CC[C@H](NC(=O)CCCCCCCCCCCCCCCCCCC(=O)O)C(=O)O)C(=O)N[C@@H](CC(N)=O)C(=O)N[C@@H]([C@@H](C)O)C(=O)N[C@@H](C)C(=O)N[C@@H]([C@@H](C)O)C(=O)N1)[C@@H](C)O)C(=O)N1CCC[C@H]1C(=O)N[C@@H](CO)C(=O)N[C@@H](CO)C(=O)N[C@H](C(=O)N[C@@H](CC(N)=O)C(=O)N[C@H](C(=O)NCC(=O)N1CCC[C@H]1C(=O)N[C@@H](CCC(=O)O)C(=O)N[C@H](C(=O)N[C@@H](Cc1ccc(O)cc1)C(N)=O)[C@@H](C)O)C(C)C)[C@@H](C)O
In the case of B3, the IC50 amounted to 0.3 nM in test [1] and 18.6 nM in the test with rat calcitonin receptor [2]. In addition, the “Ratio rCT/rAmylin binding” value with rat calcitonin receptor [3] was determined as 62. Besides, the “Ratio hCT/hAmylin binding” value in test [4] came to 16.7.

B4: N^ε1-[(4S)-4-carboxy-4-(19-carboxynonadecanoylamino)butanoyl]-[Asp14,Arg17,Pro21,Pro27,Pro34,Arg35]-h-amylin (peptide)
peptide: K([γGlu-C20 diacid])CNTATCATQRLADFLRHSSPNFGAIPSSTNVGPRTY-NH2
modifications: disulfide 2-7; N-terminus assumed
SMILES: CC[C@H](C)[C@H](NC(=O)[C@H](C)NC(=O)CNC(=O)[C@H](Cc1ccccc1)NC(=O)[C@H](CC(N)=O)NC(=O)[C@@H]1CCCN1C(=O)[C@H](CO)NC(=O)[C@H](CO)NC(=O)[C@H](Cc1c[nH]cn1)NC(=O)[C@H](CCCNC(=N)N)NC(=O)[C@H](CC(C)C)NC(=O)[C@H](Cc1ccccc1)NC(=O)[C@H](CC(=O)O)NC(=O)[C@H](C)NC(=O)[C@H](CC(C)C)NC(=O)[C@H](CCCNC(=N)N)NC(=O)[C@H](CCC(N)=O)NC(=O)[C@@H](NC(=O)[C@H](C)NC(=O)[C@@H]1CSSC[C@H](NC(=O)[C@@H](N)CCCCNC(=O)CC[C@H](NC(=O)CCCCCCCCCCCCCCCCCCC(=O)O)C(=O)O)C(=O)N[C@@H](CC(N)=O)C(=O)N[C@@H]([C@@H](C)O)C(=O)N[C@@H](C)C(=O)N[C@@H]([C@@H](C)O)C(=O)N1)[C@@H](C)O)C(=O)N1CCC[C@H]1C(=O)N[C@@H](CO)C(=O)N[C@@H](CO)C(=O)N[C@H](C(=O)N[C@@H](CC(N)=O)C(=O)N[C@H](C(=O)NCC(=O)N1CCC[C@H]1C(=O)N[C@@H](CCCNC(=N)N)C(=O)N[C@H](C(=O)N[C@@H](Cc1ccc(O)cc1)C(N)=O)[C@@H](C)O)C(C)C)[C@@H](C)O
In the case of B4, the IC50 in test [1] worked out at 0.504 nM; with rat calcitonin receptor [2], 58.5 nM. Besides, the “Ratio rCT/rAmylin binding” value with rat calcitonin receptor [3] was 116. The “Ratio hCT/hAmylin binding” value in test [4] turned out to be 151.

For the origin of these results see US20140087995A1 (published 2014).
